Reference: patent US20220334106, “CONJUGATE” (DENSO CORPORATION, published 2022)

Target: T1, alpha-amylase (UniProt P0DUB6 P0DUB6:16-511)
T1 sequence: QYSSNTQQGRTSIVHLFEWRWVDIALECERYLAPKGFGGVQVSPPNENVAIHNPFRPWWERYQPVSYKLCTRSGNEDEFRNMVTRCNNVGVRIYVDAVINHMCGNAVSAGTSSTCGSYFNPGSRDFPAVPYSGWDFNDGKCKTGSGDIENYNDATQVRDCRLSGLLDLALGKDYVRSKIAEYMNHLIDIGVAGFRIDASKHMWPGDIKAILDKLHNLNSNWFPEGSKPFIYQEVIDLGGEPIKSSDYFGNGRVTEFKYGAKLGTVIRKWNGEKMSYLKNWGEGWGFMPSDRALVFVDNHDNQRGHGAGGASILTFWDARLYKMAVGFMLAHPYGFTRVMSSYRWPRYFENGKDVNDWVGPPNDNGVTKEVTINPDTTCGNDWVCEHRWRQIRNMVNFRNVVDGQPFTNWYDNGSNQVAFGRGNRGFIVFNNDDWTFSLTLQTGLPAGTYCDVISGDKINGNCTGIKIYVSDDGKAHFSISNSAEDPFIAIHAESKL
Test: ELONA
Details: tags: Lee Biosolutions 120-17

B1: DNA aptamer to SARS-CoV-2 spike RBD, alkaline phosphatase conjugate (ssDNA)
DNA: CAGCACCGACCTTGTGCTTTGGGAGTGCTGGTCCAAGGGCGTTAATGGACA
modifications: 5' biotin via C6 spacer
binding result: no binding
